Columns and labels:
[1] = tested on: human LPA gene (Genbank number: NM_005577.4); experiment: Inhibitory activity against LPA mRNA, psiCHECK-2 dual-luciferase reporter vector in Huh7 cells; format: cell-based; settings: Huh7 cells transfected with LPA_psiCHECK-2 plasmid, RNAiMAX transfection
Method in brief: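 Huh7 cells transfected with psiCHECK-2 carrying human LPA, then treated next day with compounds (3 concentrations) delivered by RNAiMAX. Dual-Glo readout of firefly and Renilla luciferase per well. Percent inhibition calculated from the reporter ratio relative to the RNAiMAX control.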

hPBMCs = experiment: Immunogenicity test in hPBMCs (IL-6 and TNF-α ELISA of supernatant); format: cell-based, human; settings: 18-20 h
Method in brief: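 siRNA conjugates, three-fold serially diluted in water then 10-fold in 1640 medium (5.0% water final), were added in duplicate to PBMCs at 1.6 × 10^6/mL and incubated 18-20 h at 37 °C. TNF-α and IL-6 in supernatant were measured by ELISA; LPS served as positive control.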

Row | Substance | EC50 [1] [nM] | IL-6 (hPBMCs; donor 1 hPBMCs, 5 µg/mL) [pg/mL] | TNF alpha (hPBMCs; donor 1 hPBMCs, 5 µg/mL) [pg/mL] | IL-6 (hPBMCs; donor 1 hPBMCs, 15 µg/mL) [pg/mL] | TNF alpha (hPBMCs; donor 1 hPBMCs, 15 µg/mL) [pg/mL] | IL-6 (hPBMCs; donor 1 hPBMCs, 45 µg/mL) [pg/mL] | TNF alpha (hPBMCs; donor 1 hPBMCs, 45 µg/mL) [pg/mL] | IL-6 (hPBMCs; donor 2 hPBMCs, 5 µg/mL) [pg/mL] | TNF alpha (hPBMCs; donor 2 hPBMCs, 5 µg/mL) [pg/mL] | IL-6 (hPBMCs; donor 2 hPBMCs, 15 µg/mL) [pg/mL] | TNF alpha (hPBMCs; donor 2 hPBMCs, 15 µg/mL) [pg/mL] | IL-6 (hPBMCs; donor 2 hPBMCs, 45 µg/mL) [pg/mL] | TNF alpha (hPBMCs; donor 2 hPBMCs, 45 µg/mL) [pg/mL]
1 | Z42: siRNA conjugate: sense SEQ ID NO:49, ligand D01 at 3' end of sense strand, antisense SEQ ID NO:80 (sense CAGCCCCTTATTGTTATACGA; antisense NCGTATNACAATAAGGGGCNGTT; ligand D01 at sense 3' end; listed as RNA; modified_base 1: mod_base = OTHER; note = 2'-O-methylcytidine; modified_base 2: mod_base = OTHER; note = 2'-O-methyladenosine; modified_base 3: mod_base = OTHER; note = 2'-O-methylguanosine; modified_base 4..7: mod_base = OTHER; note = 2'-O-me; note = n is B33; note = 2'-deoxycytidine; modified_base 4: mod_base = OTHER; note = 2'-O-methyluridine; m) | 0.31 | 1298.3 | 35.8 | 1406.8 | 34.8 | 1457.0 | 39.4 | – | – | – | – | – | –
2 | Z46: siRNA conjugate: sense SEQ ID NO:43, ligand D01 at 3' end of sense strand, antisense SEQ ID NO:66 (sense CAGCCCCTTATTGTTANACGA; antisense TCTCGTATNACAATAAGGGGCTG; ligand D01 at sense 3' end; listed as RNA; modified_base 1: mod_base = OTHER; note = 2'-O-methylcytidine; modified_base 2: mod_base = OTHER; note = 2'-O-methyladenosine; modified_base 3: mod_base = OTHER; note = 2'-O-methylguanosine; modified_base 4..7: mod_base = OTHER; note = 2'-O-me; note = 2'-O-methyluridine; modified_base 4: mod_base = OTHER; note = 2'-fluorocytidine; modified_base 5: mod_base = OTHER; note = 2'-O-methylg) | 0.31 | – | – | – | – | – | – | 15.0 | 8.1 | 88.8 | 22.8 | 9.3 | 10.2
